From publication PMC5131957, “p53 Specifically Binds Triplex DNA In Vitro and in Cells” come the findings set out here.

The target of one data set is p53 full length (human, UniProt P04637 1-393). Briefly: ELISA; DO1 antibody; 2 mM Mg2+; EMSA: 5 mM Tris-HCl pH 8, 1 mM MgCl2, 0.01% Triton X-100, 50 mM KCl, on ice or 25 C, 30 min, pBSK/SmaI competitor 5-50 ng; ELISA: 1x PBS, 2 mM MgCl2, temperature not stated. To be noted: protein: recombinant, chain copies: 4. For orientation: ELISA stands for enzyme-linked immunosorbent assay.
Chain of p53 full length (P04637 whole entry): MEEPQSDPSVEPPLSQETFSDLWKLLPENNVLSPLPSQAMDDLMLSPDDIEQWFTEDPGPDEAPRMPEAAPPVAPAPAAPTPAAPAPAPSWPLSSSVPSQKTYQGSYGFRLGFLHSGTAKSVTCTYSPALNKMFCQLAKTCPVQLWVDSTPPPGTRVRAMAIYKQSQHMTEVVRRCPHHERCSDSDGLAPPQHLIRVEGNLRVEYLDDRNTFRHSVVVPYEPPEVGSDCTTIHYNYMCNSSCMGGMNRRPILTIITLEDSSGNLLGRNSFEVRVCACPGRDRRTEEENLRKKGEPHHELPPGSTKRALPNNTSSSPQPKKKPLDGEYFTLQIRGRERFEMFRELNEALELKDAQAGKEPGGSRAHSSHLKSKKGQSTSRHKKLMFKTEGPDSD

Data set [1] has as its target p53CT (C-terminal segment: tetramerization domain + CTDBD) (human, UniProt P04637 320-393). Briefly: ELISA; 2 mM Mg2+; EMSA: 5 mM Tris-HCl pH 8, 1 mM MgCl2, 0.01% Triton X-100, 50 mM KCl, on ice or 25 C, 30 min, pBSK/SmaI competitor 5-50 ng; ELISA: 1x PBS, 2 mM MgCl2, temperature not stated. To be noted: protein: recombinant; tags: GST (with or without); chain copies: 4; label: 3' biotin on (dA)50; intermolecular triplex, 2 x (dT)50 + 1 x (dA)50.

In a further data set the target is p53T (last 30 aa, CTDBD) (human, UniProt P04637 363-393). The data set is described as above. To be noted: protein: recombinant; tags: GST (with or without); label: 3' biotin on (dA)50; intermolecular triplex, 2 x (dT)50 + 1 x (dA)50.
Chain of p53T (last 30 aa, CTDBD) (P04637 363-393): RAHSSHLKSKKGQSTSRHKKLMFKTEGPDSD

Chain of p53CT (C-terminal segment: tetramerization domain + CTDBD) (P04637 320-393): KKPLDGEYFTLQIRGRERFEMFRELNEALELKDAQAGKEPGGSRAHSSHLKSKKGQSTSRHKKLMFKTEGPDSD

B1: T.A.T triplex, biotinylated (structured_DNA)
DNA 1: TTTTTTTTTTTTTTTTTTTTTTTTTTTTTTTTTTTTTTTTTTTTTTTTTT
DNA 2: AAAAAAAAAAAAAAAAAAAAAAAAAAAAAAAAAAAAAAAAAAAAAAAAAA
DNA 3: B1 DNA 1
For orientation: Kd means the equilibrium constant for the complex coming apart. With B1, the Kd was 0.75 ± 0.07 nM in the data set with p53 full length (label: 3' biotin on (dA)50, intermolecular triplex, 2 x (dT)50 + 1 x (dA)50); 1.88 ± 0.3 nM in data set [1]; 10.4 ± 0.84 nM in the data set with p53T (last 30 aa, CTDBD).

B2: CON, biotinylated (dsDNA)
DNA 1: GACGGTATCGATAAGAGACATGCCTAGACATGCCTCTTGATATCGAATTC
DNA 2: GAATTCGATATCAAGAGGCATGTCTAGGCATGTCTCTTATCGATACCGTC
On to B2, for which the Kd with p53 full length (label: 3' biotin on strand 1, blunt) was 0.58 ± 0.05 nM.
